From patent publication US6905817B1, “Ret-independent signaling pathway for GDNF” (Licestia Ltd., priority 1998, dated 2005)
“Also recorded” adds a separate entry of the source.

Legend:
Ret^−/− DRG neurons [1] = test: GDNF-evoked [Ca^2+]i changes, confocal microscopy, Ret^−/− DRG neurons; assay type: cell-based, mouse
Procedure: (§1) DRG from embryonic day 18 (E18) mice were treated with trypsin (Worthington), non-neuronal cells removed by preplating, and about 95% pure neurons cultured on poly-ornithine-laminin-coated glass coverslips in Ham's F14 medium (Imperial Laboratories) with serum substitute containing NGF, BDNF and NT-3 (all from PeproTech, 2 ng/ml if each) for at least 1 day before measurement. Neurotrophins were extensively washed out before GDNF application. GDNF was from PeproTech and donated by Cephalon, Inc. Ret-deficient mice (Schuchardt et al., 1994) were identified from heterozygote matings by the absence of kidneys and PCR-based genotyping. GFRα2-deficient mice were obtained from homozygote matings (Rossi et al., 1999).
(§2) [Ca^2+]i was measured using a Bio-Rad MRC-1024 confocal microscope equipped with an argon-krypton laser. The cells were loaded with 10 μM Calcium Green-1AM (Molecular Probes), a membrane permeable Ca^2+ dye, by 30 min incubation in serum free cell-culture media at 37 ° C. and 5 % CO2. After loading, the neurons were kept at room temperature in Dulbecco's PBS solution contained 20 mM HEPES (pH=7.4) for at least 20 min prior to the experiments. All compounds were applied to the bath by a peristaltic pump. 6 kD Heparin (Sigma) and Alexa 568 nm fluorescent dye (Molecular Probes) were loaded into the cells using Molecular Probes' pinocytotic influx loading reagent basically according to the manufacturer instructions. […] Cell injection was performed using Eppendorf microinjection system. The average intensity of fluorescence in the predefined ROI (Region Of Interest) was measured on-line using TimeCourse software from BioRad. The calibration of fluorescence traces was performed in vitro using Fmax and Fmin values obtained with the calcium calibration buffer kit (Molecular Probes). Because the calibration solutions may not reflect the intracellular environment, the experimental data are presented as delta [Ca^2+]i calculated using Kd=190 nM for Calcium Green-1.

[2] = system: CREB-related protein ATF-1; test: ATF-1 phosphorylation in SHEP cells; assay type: cell-based, human; conditions: GDNF treatment
Procedure: (§3) To assess GDNF-dependent MAPK and CREB phosphorylation in all studied cell lines, the semiconfluent cell monolayers were starved for 3 hours in serum-free medium, and then GDNF was applied for the indicated time. For the analysis of MAPK and CREB activation in Ret^−/− animals the DRG neurons were dissected from E18 mice and maintained in NGF-containing medium for 2 hours. After this time the neurons were deprived of NGF by placing them in NGF-free medium in the presence of anti-NGF antibodies. After 2 hr without NGF, the neurons were stimulated with GDNF. In the experiments involving Src-kinase inhibition, a Src-family kinase inhibitor PP2 was added at the indicated concentrations to the cell monolayers 5 min before GDNF application. In some experiments 1 μg/ml of soluble GFRα1 lacking a GPI anchor (GFRα1/Fc chimeric protein; R&D systems) was added 5 min prior to the GDNF application and was kept in the solution during the GDNF treatment, After stimulation, the cells were briefly washed with PBS/sodium vanadate and lysed in the buffer containing TBS, 2 mM EDTA, 1% NP-40, 1% Triton X-100, 1 mM PMSF, 1 mM Na3VO4 and a Complete, protease inhibitors cocktail (Boehringer Mannheim). Total cell protein for each extract was measured by MicroBSA (Pierce) and an equivalent amount of protein was resolved electrophoretically on 10% polyacrylamide gels. […]

MAPK = MAPK phosphorylation in parental NIH3T3 fibroblasts lacking both Ret and GFRα1; assay type: cell-based; conditions: GDNF 100 ng/ml alone
Procedure: as §3

JNK = JNK phosphorylation assay in SHEP cells; assay type: cell-based, human; conditions: GDNF 100 ng/ml
Procedure: as §3

Ret^−/− DRG neurons [3] = test: Survival of Ret^−/− DRG neurons in culture; assay type: cell-based, mouse; conditions: unpublished observations and Taraviras et al., 1999
p42/p44 MAPK [4] = test: MAPK phosphorylation in NIH 3T3 fibroblasts stably transfected with GFRα1; assay type: cell-based; conditions: GDNF 100 ng/ml
Procedure: as §3

CREB [5] = test: CREB Ser-133 phosphorylation assay in SHEP cells; assay type: cell-based, human; conditions: GDNF treatment
Procedure: as §3

[6] = system: wild type mouse DRG neurons; test: GDNF-evoked [Ca^2+]i changes, confocal microscopy with Calcium Green-1AM, wild type DRG neurons; assay type: cell-based
Procedure: as §1, §2

p42/p44 MAPK [7] = test: MAPK phosphorylation assay in SHEP neuroblastoma cells; assay type: cell-based, human; conditions: GDNF 100 ng/ml
Procedure: as §3

CREB [8] = test: CREB Ser-133 phosphorylation assay in Ret^−/− DRG neurons; assay type: cell-based, mouse; conditions: after GDNF treatment
Procedure: as §3

p42/p44 MAP kinases = test: MAPK phosphorylation assay in Ret^−/− DRG neurons; assay type: cell-based, mouse; conditions: GDNF 100 ng/ml
Procedure: as §3

B1: Glial cell line—derived neurotrophic factor (protein, UniProt P39905 78-211, looked up)
Glial cell line-derived …: SPDKQMAVLPRRERNRQAAAANPENSRGKGRRGQRGKNRGCVLTAIHLNVTDLGLGYETKEELIFRYCSGSCDAAETTYDKILKNLSRNRRLVSDKVGQACCRPIAFDDDLSFLDDNLVYHILRKHSAKRCGCI
notes: TGF-β family-related neurotrophic protein; from PeproTech and donated by Cephalon, Inc
Ret^−/− DRG neurons with long-lasting [Ca^2+]i elevation (Ret^−/− DRG neurons [1]; 10-100 ng/ml GDNF): 60-70%
change in [Ca^2+]i (Ret^−/− DRG neurons [1]; 10-100 ng/ml GDNF): long-lasting [Ca^2+]i elevation
fast [Ca^2+]i rise (Ret^−/− DRG neurons [1]; GDNF): never observed a GDNF-dependent fast [Ca^2+]i rise
change in [Ca^2+]i (calcium entry) (Ret^−/− DRG neurons [1]; GDNF 100 ng/ml in nominally Ca^2+ free external solution (about 20 μM)): evoked a massive [Ca^2+]i overshoot and substantially slower decay kinetics; also recorded: resulted in a profound increase in [Ca^2+]i
phosphorylation / activation of ATF-1 [2]: induced phosphorylation of the CREB-related protein ATF-1; also recorded: robust GDNF-dependent activation of the CREB-related protein ATF-1
MAPK phosphorylation (MAPK): did not evoke any MAPK phosphorylation
JNK activation (phosphorylation) (JNK): did not evoke JNK activation; also recorded: did not affect the phosphorylation of JNK
survival of Ret^−/− DRG neurons in culture (Ret^−/− DRG neurons [3]): not been shown to stimulate survival
phosphorylation of MAPK (p42/p44 MAPK [4]): reproducibly increased phosphorylation of MAPK
phosphorylation of CREB in Ser-133 site (CREB [5]): potently induced phosphorylation of CREB
wild type DRG neurons in which GDNF-evoked changes in [Ca^2+]i were observed [6]: 60-70%
change in [Ca^2+]i ([6]; GDNF 10 ng/ml): induced a rapid transient increase in [Ca^2+]i
change in [Ca^2+]i ([6]; GDNF concentrations over 10 ng/ml (10-100 ng/ml)): evoked rapid and long-lasting elevations in [Ca^2+]i; also recorded: evoked both a transient and slow long-lasting elevation in [Ca^2+]i
p42/p44 MAPK phosphorylation (p42/p44 MAPK [7]): transient and profound increase of p42/p44 MAPK phosphorylation
CREB phosphorylation in Ser-133 (CREB [8]): increased substantially already at 5 min
activation (phosphorylation) of MAPK (p42/p44 MAP kinases): several-fold rapid activation of MAPK
